This data set deals with the molecule itself. Briefly: native gel or EMSA; 8% native PAGE; equal amounts (2.5 μg) of FLF and CHF mixed and incubated for 1 h at 4 °C; lanes CHF, FLF, FLF + CHF.

B1: C-terminal half of human fascin 1 (CHF) (domain or fragment)
chain: not shown
notes: human fascin 1, residues 260-493 (beta3 and beta4-trefoil domains); also called N-terminal domain deletion (beta-trefoil 1 and 2); C-domain; not shown: His tag (from the vector pFastBacHT)
Take B1: the “stoichiometry N” value was determined as 2.

The values above are taken from article PMC9224989, “Structural Analysis of Human Fascin-1: Essential Protein for Actin Filaments Bundling” (Life, 2022).
